From US20190062448A1, “ANTI-CD39 ANTIBODIES, COMPOSITIONS COMPRISING ANTI-CD39 ANTIBODIES AND METHODS OF USING ANTI-CD39 ANTIBODIES” (Tizona Therapeutics, priority 2017, published 2019)
Entries after “also recorded” stand apart in the source; their conditions may differ.

Tests used:
hCD39-ECD = target: T1, hCD39-ECD (Homo sapiens, UniProt P49961); assay: Epitope binning / competition for hCD39-ECD binding by Bio-Layer Interferometry
T1 sequence (P49961 38-478 limits assumed): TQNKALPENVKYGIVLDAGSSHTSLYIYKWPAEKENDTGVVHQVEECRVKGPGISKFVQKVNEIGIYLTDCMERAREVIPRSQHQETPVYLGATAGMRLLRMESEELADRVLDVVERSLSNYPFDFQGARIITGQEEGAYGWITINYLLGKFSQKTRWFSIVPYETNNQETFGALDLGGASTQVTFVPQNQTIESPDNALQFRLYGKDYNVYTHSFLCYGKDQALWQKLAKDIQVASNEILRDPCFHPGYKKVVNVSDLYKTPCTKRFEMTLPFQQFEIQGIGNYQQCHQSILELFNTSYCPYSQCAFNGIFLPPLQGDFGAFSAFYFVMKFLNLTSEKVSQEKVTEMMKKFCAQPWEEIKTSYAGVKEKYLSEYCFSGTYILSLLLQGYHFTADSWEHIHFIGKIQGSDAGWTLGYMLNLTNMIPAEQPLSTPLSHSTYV
Text: A1 antibody was immobilized onto an Anti-Mouse IgG Fc Capture (AMC) biosensor (ForteBio). Association of hCD39-ECD was then monitored for 180 seconds via Bio-Layer Interferometry (BLI) using the Octet system (ForteBio), at which point the biosensor was dipped into competitor antibody and monitored for another 180 seconds.
The methods are the same as set forth above except that instead of A1, the representative antibody was immobilized using anti-human IgG Fc Capture (AHC) biosensor.
Also, an 18 hour incubation was used with the antibody or isotype control. Finally, an additional 30 second baseline dip in buffer between antigen capture and dipping into a second competitor antibody for 300 seconds was used.

[1] = target: T2, human-mouse CD39 chimeras (Homo sapiens, UniProt P49961, D150A/E143Q/E153S/L144S/N158S/R147E/R154T/S157K/V151A); assay: Binding to human-mouse CD39 chimeras and point mutants expressed in CHO cells (FACS); conditions: 15 μg/ml antibody
T2 construct: expressed in transfected cells; host or cells: CHO cells
T2 sequence (P49961 1-510 E143Q/L144S/R147E/D150A/V151A/E153S/R154T/S157K/N158S): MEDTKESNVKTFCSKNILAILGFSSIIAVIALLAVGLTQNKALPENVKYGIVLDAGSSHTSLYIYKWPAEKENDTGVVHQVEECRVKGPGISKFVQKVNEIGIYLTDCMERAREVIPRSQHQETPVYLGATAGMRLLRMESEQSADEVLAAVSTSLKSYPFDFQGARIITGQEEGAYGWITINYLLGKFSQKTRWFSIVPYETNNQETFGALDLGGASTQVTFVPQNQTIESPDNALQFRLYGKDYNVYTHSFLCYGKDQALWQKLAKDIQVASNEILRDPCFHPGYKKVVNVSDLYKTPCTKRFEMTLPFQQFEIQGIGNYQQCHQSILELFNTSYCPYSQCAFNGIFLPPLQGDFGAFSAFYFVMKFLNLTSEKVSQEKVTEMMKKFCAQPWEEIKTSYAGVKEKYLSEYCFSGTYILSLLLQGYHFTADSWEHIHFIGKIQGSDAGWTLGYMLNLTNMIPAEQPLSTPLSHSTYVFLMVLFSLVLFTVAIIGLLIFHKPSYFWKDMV
Procedure: (§1) Chimeras were generated by replacing human CD39 with mouse CD39 sequence in mammalian expression vectors. The chimeras were expressed in CHO cells and the ability of anti-human CD39 antibodies to bind the chimeras tested via FACS. In brief, cells were washed and blocked in FACS buffer (PBS/2% FBS) for 30 min on ice. They were then incubated with 15 μg/ml anti-human CD39 antibodies diluted in FACS buffer×1 h on ice. After 2 washes, cells were incubated with fluorescently labeled anti-human Fc antibodies, anti-mouse Fc antibodies, or anti-mCD39 antibody (R&D Systems 495826) diluted in FACS buffer per manufacturers' instructions×30 min on ice. After 2 washes, cells were resuspended in FACS buffer and analyzed on BD Fortessa. Data was processed with FlowJo. Positive binding was scored as “yes” and lack of binding was scored as “NO” and examples of FACS plots used to generate this table are in FIGS. 14.F and 14.G.
(§2) Chimeras were generated by mutagenesis of Chimera #2 or WT hCD39 expression vectors. Residues for mutagenesis were chosen based on divergence between human and mouse CD39. The chimeras were expressed in CHO cells and the ability of anti-human CD39 antibodies to bind the chimeras tested via FACS, as described in FIG. 14E. Table 2. Positive binding was scored as “Yes” and lack of binding was scored as “No” and examples of FACS plots used to generate this table are in FIGS. 14.F and 14.G.

[2] = target: T3, human-mouse CD39 chimeras (Homo sapiens, UniProt P49961, E276G/I277V/N275G); assay: as above; conditions: 15 μg/ml antibody
T3 construct: expressed in transfected cells; host or cells: CHO cells
T3 sequence (P49961 1-510 N275G/E276G/I277V): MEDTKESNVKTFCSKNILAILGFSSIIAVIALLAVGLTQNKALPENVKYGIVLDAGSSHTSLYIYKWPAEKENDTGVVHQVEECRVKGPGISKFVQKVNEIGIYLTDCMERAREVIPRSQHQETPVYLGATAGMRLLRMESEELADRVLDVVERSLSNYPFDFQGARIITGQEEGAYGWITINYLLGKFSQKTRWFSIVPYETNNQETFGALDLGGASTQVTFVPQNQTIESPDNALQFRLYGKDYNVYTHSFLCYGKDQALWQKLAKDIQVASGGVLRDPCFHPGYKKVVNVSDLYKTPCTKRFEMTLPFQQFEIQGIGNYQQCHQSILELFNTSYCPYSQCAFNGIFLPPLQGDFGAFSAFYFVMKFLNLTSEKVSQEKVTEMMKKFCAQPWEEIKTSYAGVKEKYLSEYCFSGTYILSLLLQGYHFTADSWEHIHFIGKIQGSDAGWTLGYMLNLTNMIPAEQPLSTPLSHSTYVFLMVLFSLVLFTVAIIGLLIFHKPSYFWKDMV
Procedure: as §1, §2

[3] = test system: human-mouse CD39 chimeras; assay: as above
Procedure: as §1, §2

[4] = test system: CD4^+ and CD8^+ T cells in stimulated PBMCs; assay: Proliferation of anti-CD3+anti-CD28 stimulated T cells (Cell Trace Violet); assay type: cell-based, human; conditions: 50 μM ATP; 96 hours; vs isotype control
Procedure: Proliferation of CD4^+ and CD8^+ T cells was measured by Cell Trace Violet by flow cytometry.

stimulated human PBMCs = assay: Cytokine secretion by anti-CD3+anti-CD28 stimulated PBMCs (Meso Scale Discovery); assay type: cell-based; conditions: 96 hours
Procedure: Supernatants were harvested after 96 hours and cytokines were measured using a Meso Scale Discovery human cytokine kit.
Supernatants were harvested after 96 hours and analyzed by Meso Scale Discovery human cytokine kit.

[5] = test system: CD39^+CD73^+SK-MEL-28 cells; assay: Extracellular ATP accumulation in SK-MEL-28 supernatants (AmpGlo Kit); assay type: cell-based, human; conditions: 1 hour treatment; 50 μM ATP for 15 min
Procedure: (§3) The supernatants were analyzed for ATP levels using AmpGlo Kit (A) and for adenosine levels using LC/MS analysis (B). % Adenosine levels were normalized to isotype control (100%) and SK-MEL-28 CD39 KO cells (0%).

[6] = test system: CD39^+CD73^+SK-MEL-28 cells; assay: Adenosine generation by SK-MEL-28 cells (LC/MS); assay type: cell-based, human; conditions: normalized to isotype control (100%) and CD39 KO cells (0%)
Procedure: as §3

B1: 31895: inhibitory anti-CD39 antibody, contacts E143-N158 incl. D150 and E153 (antibody, V domains shown)
VH: QVQLVQSGAEVKKPGASVKVSCKASGYTFKSYEMHWVRQAPGQGLEWMGRINPSVGSTWYAQKFQGRVTMTRDTSTSTVYMELSSLRSEDTAVYYCARGKREGGTEYLRKWGQGTLVTVSS
VL: EIVLTQSPGTLSLSPGERATLSCRASQSVASSYLAWYQQKPGQAPRLLIYGASNRHTGIPDRFSGSGSGTDFTLTISRLEPEDFAVYYCQQYHNAITFGGGTKVEIK
modifications: Synthetic VH, 31895; Synthetic VL, 31895
notes: D150 and E153
competition / binning with other anti-CD39 antibody bin groups for ECD binding (hCD39-ECD): do not bin with anti-CD39 antibody bin groups represented by antibodies A1, 27536, or 27549
binding to Chimera #2 (human E143-N158 replaced by mouse sequence) [1]: able to bind all chimeras but Chimera #2; also recorded: inability to recognize Chimera #2
binding to Chimera #4 [2]: able to bind all chimeras but Chimera #2
binding to Chimera #9,10 (single residues of Chimera #2 reverted to human) [3]: restore the ability
binding to Chimeras #13,14 (two human residues co-mutated to mouse) [3]: did not impair binding
% CD4^+ T cell proliferation [4]: increases proliferation
% CD8^+ T cell proliferation [4]: increases proliferation
secretion of INF-γ, TNF-α and IL-2 (stimulated human PBMCs; absence of exogenous ATP): increases cytokine secretion
release of INF-γ, TNF-α, IL-2 and IL-1β (stimulated human PBMCs; fixed concentration of 50 μg/ml, presence of ATP, compared to HAO-391 and HAO mAb4): increased cytokine release by activated PBMCs to a higher degree
secretion of INF-γ, TNF-α and IL-2 (stimulated human PBMCs; presence of exogenous ATP (50 μM)): increases cytokine secretion
extracellular ATP accumulation [5]: Increase Extracellular ATP Accumulation
adenosine generation (% of adenosine levels) [6]: Reduces Adenosine Generation
